Results taken from article PMC10883916, “Cbp1 and Cren7 form chromatin-like structures that ensure efficient transcription of long CRISPR arrays”.

Key:
Cbp1;Cren7 [1] = molecular target: T1, Cbp1;Cren7 (Saccharolobus (Sulfolobus) solfataricus …, UniProt Q97ZW9;Q97ZE3 1-150;1-60, |); assay: EMSA; 12.5 nM Cbp1, 3.125-25 nM Cren7; second Cren7 at higher concentration; EMSA: 800 pM DNA, 10 mM MOPS pH 6.5, 100 mM KCl, 10 mM MgCl2, 2 µg BSA, 10% glycerol, 5 mM DTT, 75 °C 5 min; long templates: 10 mM MOPS pH 6.5, 10 mM MgCl2, 105 mM KCl, 10% glycerol, 10 mM DTT, 5 µg/ml heparin, 2 mM spermidine, 65 °C; conditions: protein: recombinant;recombinant; tags: ;; copies: 1;2; label: 5'-32P; blunt
T1 sequence 1: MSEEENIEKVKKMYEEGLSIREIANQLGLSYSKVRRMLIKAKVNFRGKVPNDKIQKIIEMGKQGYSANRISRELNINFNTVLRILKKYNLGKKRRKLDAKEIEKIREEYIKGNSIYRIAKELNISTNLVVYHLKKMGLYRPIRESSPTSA
T1 sequence 2: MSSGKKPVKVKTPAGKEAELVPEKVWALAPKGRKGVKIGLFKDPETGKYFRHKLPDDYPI

Cbp1;Cren7 [2] = molecular target: T1, Cbp1;Cren7; assay: EMSA; 12.5 nM Cbp1, 12.5-25 nM Cren7; two Cren7 recruited; EMSA: 800 pM DNA, 10 mM MOPS pH 6.5, 100 mM KCl, 10 mM MgCl2, 2 µg BSA, 10% glycerol, 5 mM DTT, 75 °C 5 min; long templates: 10 mM MOPS pH 6.5, 10 mM MgCl2, 105 mM KCl, 10% glycerol, 10 mM DTT, 5 µg/ml heparin, 2 mM spermidine, 65 °C; conditions: protein: recombinant;recombinant; tags: ;; copies: 1;2; label: 5'-32P; blunt
Cbp1;Cren7 [3] = molecular target: T1, Cbp1;Cren7; assay: EMSA; 12.5 nM Cbp1, 3.125-25 nM Cren7; weaker Cren7 affinity than CRISPR A; EMSA: 800 pM DNA, 10 mM MOPS pH 6.5, 100 mM KCl, 10 mM MgCl2, 2 µg BSA, 10% glycerol, 5 mM DTT, 75 °C 5 min; long templates: 10 mM MOPS pH 6.5, 10 mM MgCl2, 105 mM KCl, 10% glycerol, 10 mM DTT, 5 µg/ml heparin, 2 mM spermidine, 65 °C; conditions: protein: recombinant;recombinant; tags: ;; copies: 1;2; label: 5'-32P; blunt
Cbp1 [4] = molecular target: T2, Cbp1 (Saccharolobus (Sulfolobus) solfataricus …, UniProt Q97ZW9 1-150); assay: EMSA; 12.5 nM Cbp1; stronger than CRISPR A; EMSA: 800 pM DNA, 10 mM MOPS pH 6.5, 100 mM KCl, 10 mM MgCl2, 2 µg BSA, 10% glycerol, 5 mM DTT, 75 °C 5 min; long templates: 10 mM MOPS pH 6.5, 10 mM MgCl2, 105 mM KCl, 10% glycerol, 10 mM DTT, 5 µg/ml heparin, 2 mM spermidine, 65 °C; conditions: protein: recombinant; label: 5'-32P; blunt
T2 sequence: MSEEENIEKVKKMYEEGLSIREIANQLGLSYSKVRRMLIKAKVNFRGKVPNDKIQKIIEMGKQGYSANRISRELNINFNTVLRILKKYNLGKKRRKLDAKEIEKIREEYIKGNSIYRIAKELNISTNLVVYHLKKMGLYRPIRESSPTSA

Cbp1 [5] = molecular target: T2, Cbp1; assay: EMSA; WT reference; EMSA: 800 pM DNA, 10 mM MOPS pH 6.5, 100 mM KCl, 10 mM MgCl2, 2 µg BSA, 10% glycerol, 5 mM DTT, 75 °C 5 min; long templates: 10 mM MOPS pH 6.5, 10 mM MgCl2, 105 mM KCl, 10% glycerol, 10 mM DTT, 5 µg/ml heparin, 2 mM spermidine, 65 °C; conditions: protein: recombinant; label: 5'-32P; blunt
Cbp1 ΔHTH3 = molecular target: T3, Cbp1 ΔHTH3 (S. solfataricus P2, UniProt Q97ZW9 1-87+136-150, internal_change); assay: EMSA; 80 nM; no apparent effect of mutation; EMSA: 800 pM DNA, 10 mM MOPS pH 6.5, 100 mM KCl, 10 mM MgCl2, 2 µg BSA, 10% glycerol, 5 mM DTT, 75 °C 5 min; long templates: 10 mM MOPS pH 6.5, 10 mM MgCl2, 105 mM KCl, 10% glycerol, 10 mM DTT, 5 µg/ml heparin, 2 mM spermidine, 65 °C; conditions: protein: recombinant; label: 5'-32P; blunt
T3 sequence: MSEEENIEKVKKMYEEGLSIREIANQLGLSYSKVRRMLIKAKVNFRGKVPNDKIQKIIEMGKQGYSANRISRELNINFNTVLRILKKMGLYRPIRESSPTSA

Cbp1 [6] = molecular target: T2, Cbp1; assay: EMSA; not reduced vs WT repeat; EMSA: 800 pM DNA, 10 mM MOPS pH 6.5, 100 mM KCl, 10 mM MgCl2, 2 µg BSA, 10% glycerol, 5 mM DTT, 75 °C 5 min; long templates: 10 mM MOPS pH 6.5, 10 mM MgCl2, 105 mM KCl, 10% glycerol, 10 mM DTT, 5 µg/ml heparin, 2 mM spermidine, 65 °C; conditions: protein: recombinant; label: 5'-32P; blunt
Cbp1 ΔHTH1 = molecular target: T4, Cbp1 ΔHTH1 (S. solfataricus P2, UniProt Q97ZW9 1-1+51-150, internal_change); assay: EMSA; 160 nM; unaffected by mutation vs ΔHTH1 on WT repeat; EMSA: 800 pM DNA, 10 mM MOPS pH 6.5, 100 mM KCl, 10 mM MgCl2, 2 µg BSA, 10% glycerol, 5 mM DTT, 75 °C 5 min; long templates: 10 mM MOPS pH 6.5, 10 mM MgCl2, 105 mM KCl, 10% glycerol, 10 mM DTT, 5 µg/ml heparin, 2 mM spermidine, 65 °C; conditions: protein: recombinant; label: 5'-32P; blunt
T4 sequence: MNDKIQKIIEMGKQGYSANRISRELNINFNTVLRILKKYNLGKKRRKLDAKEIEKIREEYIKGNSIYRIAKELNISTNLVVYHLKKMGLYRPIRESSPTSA

Cbp1;Cren7 [7] = molecular target: T1, Cbp1;Cren7; assay: EMSA; 12.5 nM Cbp1, 3.125-25 nM Cren7; EMSA: 800 pM DNA, 10 mM MOPS pH 6.5, 100 mM KCl, 10 mM MgCl2, 2 µg BSA, 10% glycerol, 5 mM DTT, 75 °C 5 min; long templates: 10 mM MOPS pH 6.5, 10 mM MgCl2, 105 mM KCl, 10% glycerol, 10 mM DTT, 5 µg/ml heparin, 2 mM spermidine, 65 °C; conditions: protein: recombinant;recombinant; tags: ;; copies: 1;2; label: 5'-32P; blunt

B1: CRISPR A repeat, 20 bp flanks (Fig. 1e) (dsDNA)
DNA 1: CATCTTCTCTCATCACCTTCGATTAATCCCAAAAGGAATTGAAAGAATGTATAAAGGTAACCAGG
DNA 2: CCTGGTTACCTTTATACATTCTTTCAATTCCTTTTGGGATTAATCGAAGGTGATGAGAGAAGATG
binding result (Cbp1;Cren7 [1]): binds

B2: CRISPR A repeat 1, 20 bp downstream (dsDNA)
DNA 1: GGAAGTATAAAAACACAACAGATTAATCCCAAAAGGAATTGAAAGGAACTAGCTTATAGTTTAGA
DNA 2: TCTAAACTATAAGCTAGTTCCTTTCAATTCCTTTTGGGATTAATCTGTTGTGTTTTTATACTTCC
binding result (Cbp1;Cren7 [2]): binds

B3: CRISPR D repeat, 20 bp flanks (dsDNA)
DNA 1: AACTAACAAATATACGCCTTGATAATCTCTTATAGAATTGAAAGTCAATTTGTGAAACTTGTCC
DNA 2: GGACAAGTTTCACAAATTGACTTTCAATTCTATAAGAGATTATCAAGGCGTATATTTGTTAGTT
binding result (Cbp1;Cren7 [3]): binds

B4: CRISPR F repeat, 20 bp flanks (dsDNA)
DNA 1: AAAATTATTGACAAAAATAGGCTAATCTACTATAGAATTGAAAGCTACACCGATTCCGATACCC
DNA 2: GGGTATCGGAATCGGTGTAGCTTTCAATTCTATAGTAGATTAGCCTATTTTTGTCAATAATTTT
binding result (Cbp1 [4]): binds | binding result (Cbp1;Cren7 [3]): binds

B5: CRISPR A repeat 1, 5 bp flanks (WT) (dsDNA)
DNA 1: CAACAGATTAATCCCAAAAGGAATTGAAAGGAACT
DNA 2: AGTTCCTTTCAATTCCTTTTGGGATTAATCTGTTG
binding result (Cbp1 [5]): binds

B6: CRISPR A repeat 1 A22C/A23C (dsDNA)
DNA 1: CAACAGATTAATCCCAAAAGGAATTGCCAGGAACT
DNA 2: AGTTCCTGGCAATTCCTTTTGGGATTAATCTGTTG
binding result (Cbp1 ΔHTH3): binds

B7: CRISPR A repeat 1 A13C/A14C (A13C/T14G in text) (dsDNA)
DNA 1: CAACAGATTAATCCCAACCGGAATTGAAAGGAACT
DNA 2: AGTTCCTTTCAATTCCGGTTGGGATTAATCTGTTG
binding result (Cbp1 [6]): binds

B8: CRISPR A repeat 1 T19G/T20G (dsDNA)
DNA 1: CAACAGATTAATCCCAAAAGGAAGGGAAAGGAACT
DNA 2: AGTTCCTTTCCCTTCCTTTTGGGATTAATCTGTTG
binding result (Cbp1 ΔHTH3): binds

B9: CRISPR A repeat 1 A6C/T7G (dsDNA)
DNA 1: CAACAGATTACGCCCAAAAGGAATTGAAAGGAACT
DNA 2: AGTTCCTTTCAATTCCTTTTGGGCGTAATCTGTTG
binding result (Cbp1 ΔHTH1): binds

B10: CRISPR A repeat 1, 2 bp downstream (dsDNA)
DNA 1: GGAAGTATAAAAACACAACAGATTAATCCCAAAAGGAATTGAAAGGA
DNA 2: TCCTTTCAATTCCTTTTGGGATTAATCTGTTGTGTTTTTATACTTCC
binding result (Cbp1;Cren7 [2]): binds

B11: ISC1229 non-canonical Cbp1 binding site (dsDNA)
DNA 1: AACTTCAAGCATAGTGTCAACTAAGATTGCCACGTGAATTGAAAGGATTCACGTGGCGATTTTGG
DNA 2: CCAAAATCGCCACGTGAATCCTTTCAATTCACGTGGCAATCTTAGTTGACACTATGCTTGAAGTT
binding result (Cbp1;Cren7 [7]): binds
